Assay results: US10323078B2, “Isolated peptides and fragments thereof from fibrinogen for use as drugs, particularly in skin inflammatory diseases” (Universite Paris Descartes, priority 2015, dated 2019)
Ends that are not written are not given here.

Assays:
[1] = system: NHEK cells; experiment: In vitro model of psoriasis: hBD-2 release by keratinocytes stimulated by IL-17, OSM and TNF-α; format: cell-based, human; settings: NHEK stimulated by IL-17, OSM and TNF-α (5 ng/ml each); 10 μM; 72 h
Procedure: FIG. 31: Inhibition of hBD-2 production by keratinocytes stimulated by Il-17, OSM and TNF-α. NHEK cells were stimulated by a combination of Il-17, OSM and TNF-α (5 ng/ml each) and treated with JAK inhibitor at 10 μM (positive control) or Fg1.1.1 at concentrations ranging from 1.52 to 12.2 μM for 72 h. Measurement of hBD-2 production was realized by ELISA and cytotoxicity was determined by the MTT assay as described in Materials and Methods Control experiments were done with untreated and unstimulated NHEK cells (cell alone) and with untreated NHEK stimulated by the combination of Il-17, OSM and TNF-α. Data are means±S.D. of three individual experiments. Statistical significance is indicated by * (P<0.05), ** (P<0.01), and *** (P<0.001), respectively.
(§1) For experiences using an in vitro model of psoriasis, cutaneous primary human keratinocytes (NHDK) were grown in culture medium for 24 hours. […]
(§2) Human IL-1ß, IL-8, IL-12, hBD-2, and TNF-α protein concentration was measured in the supernatants of stimulated cells using various ELISA Set kits (Ready-Set-Go kit from eBioscience for acne experiments, and for psoriasis experiments the Duo set IL-8 kit from R&D Systems and the BD-2 Human Development (hBD-2) from Peprotech) according to the manufacturer's instructions. […] The optical density was determined at 450 nm at a wavelength correction of 540 nm. […]

[2] = system: NHEK cells; experiment: In vitro model of psoriasis: IL-8 release by keratinocytes stimulated by IL-17, OSM and TNF-α; format: cell-based, human; settings: NHEK stimulated by IL-17, OSM and TNF-α (3 ng/ml each); 10 μM; 48 h
Procedure: (§3) FIG. 30: Inhibition of Il-8 production by keratinocytes stimulated by Il-17, OSM and TNF-α. NHEK cells were stimulated by a combination of Il-17, OSM and TNF-α (3 ng/ml each) and treated with JAK inhibitor at 10 μM (positive control) or Fg1.1.1 at concentrations ranging from 1.52 to 12.2 μM for 48 h. Measurement of IL-8 production was realized by ELISA and cytotoxicity was determined by the MTT assay as described in Materials and Methods Control experiments were done with untreated and unstimulated NHEK cells (cell alone) and with untreated NHEK stimulated by the combination of Il-17, OSM and TNF-α. Data are means±S.D. of three individual experiments. Statistical significance is indicated by * (P<0.05), ** (P<0.01), and *** (P<0.001), respectively.
as §1, §2

[3] = system: NHEK cells; experiment: In vitro model of psoriasis: cytotoxicity by MTT assay; format: cell-based, human; settings: all concentrations tested (1.52 to 12.2 μM)
Procedure: as §3, with “Statistical significance is indicated by * (P<0.05), ** (P<0.01), and *** (P<0.001), respectively.” left out
FIG. 31: Inhibition of hBD-2 production by keratinocytes stimulated by Il-17, OSM and TNF-α. […] Measurement of hBD-2 production was realized by ELISA and cytotoxicity was determined by the MTT assay as described in Materials and Methods Control experiments were done with untreated and unstimulated NHEK cells (cell alone) and with untreated NHEK stimulated by the combination of Il-17, OSM and TNF-α. […]
Crystal violet staining was used to determine the number of adherent cells in 96-well plates. […] After washing with PBS, 100% methanol was added, and the absorbance was measured spectrophotometrically at 540 nm on an ELISA multiwell reader. […] After thorough mixing, the absorbance was measured at 540 nm.

[4] = system: P. acnes RON strain; experiment: Adhesion assay, biotinylated P. acnes binding to monocytes (ThP1); format: cell-based, Propionibacterium acnes; settings: monocytes (THP-1); bacteria pretreated 0.87 to 7 μM, 1 h at 37° C.
Procedure: FIG. 13: Dose-dependent inhibition of P. acnes RON binding to monocytes cell line. Biotinylated P. acnes RON strain at concentrations adjusted to 0.1 of absorbance at 600 nm was pre-treated with the recombinant peptides Fg1 and Fg2 and incubated 1 h at 37° C. with the human immortalized monocytes cell line ThP1. After removal of unbound bacteria, adhesion activity was detected at 410 nm. Data are means±S.D. of three separate experiments. Statistical significance is indicated by * (P<0.05), ** (P<0.01), *** (P<0.001), and **** (P<0.0001), respectively.
The bacterial suspension was adjusted at 600 nm to the desired concentration, pretreated with peptides Fg1 and Fg2 at the final concentration ranging from 0.87 to 7 μM for 1 h at 37° C. and deposited on the previously saturated cells with a solution of PBS SVF 2% for 2 h. After incubation for 1 h at 37° C., unbound bacteria are removed by 3 washes with PBS and fixed bacteria are detected by a streptavidin-peroxidase solution of 0.5 μg/ml for 30 min.
Whole P. acnes bacteria are labelled by biotinylation, pre-treated or not with the peptides and contacted with the various cell lines. After removal of the unfixed bacteria, the adhesion activity was measured spectrophotometrically by using the streptavidin-peroxidase conjugate and a chromogenic substrate. […]

[5] = system: HaCaT, NHDK, ThP1, MRC5 and HDF cell lines; experiment: Cell viability (MTT) after treatment with Fg1 and Fg2 recombinant peptides; format: cell-based, human; settings: all 5 cell lines; 0.22 to 7 mM for 18 h at 37° C.
Procedure: FIG. 10: Evaluation of cell viability after treatment with the Fg1 and Fg2 recombinant peptides. Human immortalized and primary keratinocyte cell lines HaCaT and NHDK; immortalized monocytes cell line ThP1, and immortalized and primary fibroblast cell lines MRCS and HDF were incubated with Fg1 and Fg2 recombinant peptides with concentrations ranging from 0.22 to 7 mM for 18 h at 37° C. Cell viability was assessed using the MTT assay as described in Materials and Methods.
Crystal violet staining was used to determine the number of adherent cells in 96-well plates. Briefly, after incubation with the test compound, the culture medium was discarded and the cells were incubated with a 0.05% crystal violet solution (Sigma) for 30 min at room temperature. After washing with PBS, 100% methanol was added, and the absorbance was measured spectrophotometrically at 540 nm on an ELISA multiwell reader. The MTT ([…]) assay was performed to test cell viability in 96-well plates. […] After thorough mixing, the absorbance was measured at 540 nm.
Whole P. acnes bacteria are labelled by biotinylation, pre-treated or not with the peptides and contacted with the various cell lines. After removal of the unfixed bacteria, the adhesion activity was measured spectrophotometrically by using the streptavidin-peroxidase conjugate and a chromogenic substrate.

[6] = system: Pfg; experiment: Western ligand blot with biotinylated Pfg; format: binding, Propionibacterium acnes; settings: E. coli total protein after IPTG induction, 12.5% SDS-PAGE; biotinylated Pfg 0.1 μg/ml
Procedure: FIG. 5: Binding of P. acnes surface proteins to fibrinogen. (A) Various quantities of human fibrinogen (hFg) and bovine fibrinogen (bFg) were immobilized onto a 96-well polystyrene plate at 4° C. for 18 h and incubated with biotinylated Pfg at 0.1 μg/ml for 2 h at 23° C. Bovine serum albumin (BSA) was used as negative control. Bound material was detected by using the HRP-streptavidin conjugate. Peroxidase activity was measured by using the ABTS substrate at 405 nm. Proteins (10 μg per lane) were separated by 10% SDS-PAGE and detected by (B) Commassie blue staining, and transferred to nitrocellulose membrane and incubated with (C) HRP-streptavidine alone, and (D) biotinylated Pfg (0.1 μg/ml). Lanes 1: molecular weight standards. Lane 2: BSA. Lane 3: hFg. Lane 4: bFg.
FIG. 8: Cloning of Bß human fibrinogen fragments and binding with Pfg. (A) Cloning and expression of recombinant human Bß fibrinogen fragments Fg1, Fg2, Fg3 and Fg4. Fibrinogen fragments were obtained by RT-PCR and expression plasmids were constructed as described in Materials and Methods. (B) GST-fused proteins were expressed in E. coli, fractionated by 12.5% SDS-PAGE, and detected by Coomassie blue staining (B), and incubated with biotinylated Pfg (0.1 μg/ml) as described in Materials and Methods (C).
To characterize the interaction between P. acnes and ligands, we used biotinylated molecules in quantitative and qualitative assays. In a first set of assays, ECM ligands (fibrinogen, collagens I, IV, VI and VIII) were used as labelled proteins with biotin. In a second set of assays, P. acnes surface proteins (total extract and purified Pfg) were biotinylated. For quantitative analysis, unlabeled protein were diluted into 50 mM carbonate-bicarbonate, pH 9.6 buffer to yield a protein concentration ranging from 0.01 to 50 μg/ml, and then immobilized to 96-well polystyrene plates at 4° C. overnight. The wells were rinsed three times with 0.2 ml of PBS containing 0.05% Tween-20 (PBS-Tween). Biotinylated proteins (0.01 to 16 μg/ml in PBS-Tween) were added to the wells and incubated at room temperature for 1 h. The wells were rinsed three times with 0.2 ml of PBS-Tween. Peroxidase conjugated to streptavidin (0.5 μg/ml in PBS-Tween) was added and incubated for 30 min at room temperature. After washing, bound peroxidase was detected using the chromogenic peroxidase substrate ABTS. For qualitative analysis, unlabelled protein (10-75 μg per lane) were separated by SDS-PAGE and then transferred to nitrocellulose membranes (0.45 μm pore size), as described previously (Towbin, 1979). Membranes were then saturated overnight at 4° C. in PBS containing 5% BSA, 0.05% Tween-20 (PBT buffer). Binding activity was detected by incubating the membranes with 20 ml of PBT containing biotinylated proteins (0.1 μg/ml) for 2 h at room temperature followed by three washes with PBT. Bound biotinylated proteins were detected by incubating the membrane with peroxidase conjugated to streptavidin (0.5 μg/ml in PBT) for 1 h at room temperature. After washing, bound peroxidase activity was detected using 3,3′-diaminobenzidine in the presence of CoCl2 and H2O2 (Harlow and Lane, 1988).
Since it was shown that Pfg is recognized by fibrinogen, this ECM ligand was used to analyze the nature of this interaction. First it was analyzed the ability of fibrinogen to be recognized by purified Pfg (FIG. 5). Human and bovine Fg (hFg, bFg) were immobilized to polysterene plate and the binding activity of biotinylated Pfg was measured. […] It has been shown that fibrinogen is a glycoprotein containing both N- and O-linked glycans (Debeire 1985; Reid Townsend 1982; L'Hôte 1996). […] In parallel, deglycosylation was assessed by visualization of a shift in the mobility after electrophoresis separation and Coomassie blue staining (FIG. 6A, lanes 3 and 5) and also by using the RCA-I plant lectin able to recognize ß-linked galactosyl residues in terminal position (FIG. 6C) (Green, 1987). […]

[7] = system: Pfg binding to fibrinogen; experiment: Inhibition of biotinylated Pfg binding to coated fibrinogen; design: species or system Propionibacterium acnes; settings: biotinylated Pfg pretreated with increasing amount of recombinant peptide 1 h at 37° C.; fibrinogen coated 25 μg per well
Procedure: FIG. 9: Dose-dependent inhibition of biotinylated Pfg binding to fibrinogen by fibrinogen-derived peptide. Biotinylated PFg (0.4 mg) was pretreated with increasing amount of recombinant peptides Fg1 (♦), Fg2 (▪) or BSA as control (●) for 1 h at 37° C., and the binding activity to coated fibrinogen on polystyrene plate (25 μg per well) was evaluated. Results are expressed as mean±SD. Each point was done in quadruplet.
Since it has been shown that only Fg1 was able to recognize Pfg, biotinylated Pfg was pre-treated with various concentrations of purified Fg1 and tested its ability to recognize immobilized fibrinogen. Fg2 and BSA were used as neative controls (FIG. 9).

Question: How did the “Inhibition of hBD-2 release” value [1] turn out when Jak Inhibitor I was run?
Answer: Its value is 80%.

Question: What about the “Inhibition of IL-8 release” value [2] of the same molecule?
Answer: The value was 67%.

Question: “LLLCVFLVKSQGVND [Fg1.1.1, LLLCVFLVKSQGVND]” was tested. Which “Effect on cell viability (MTT)” value [3] did it give?
Answer: The value was “no effect on cell viability”.

B1: DAGGCLHADPDLGVLCPTGCQLQEALLQQERPIRNSVDELNNNVEAVSQTSSSSFQYMYLLKDLWQKRQKQVKDNENVVNEYSSELEKHQLYIDETVNSNIPTNLRVLRSILENLRSKIQKLESDVSAQMEYCRTPCTVSCNIPVVS (protein)
chain: DAGGCLHADPDLGVLCPTGCQLQEALLQQERPIRNSVDELNNNVEAVSQTSSSSFQYMYLLKDLWQKRQKQVKDNENVVNEYSSELEKHQLYIDETVNSNIPTNLRVLRSILENLRSKIQKLESDVSAQMEYCRTPCTVSCNIPVVS
modifications: fragment Fg2
notes: recombinant fragment of Bß sub-unit of human fibrinogen, used as negative control
Question: How did the “Inhibition of adhesion of P. acnes RON strain” value [4] turn out when B1 was run?
Answer: The value was “no anti-adhesive activity”.

Question: And the “Cytotoxic activity (cell viability, MTT)” value [5]?
Answer: The value was “no cytotoxic activity”.

Question: And the “Recognition of GST-fused recombinant Bß fibrinogen fragments by biotinylated Pfg” value [6]?
Answer: Its value is “only Fg1 was recognized”.

Question: What about the “Inhibition of the recognition between Pfg and human fibrinogen” value [7] of the same molecule?
Answer: The value was “did not”.
